Where a chain is given by its changes, count along the chain named. Names may count otherwise.
T1: FcgRIIb extracellular domain with C-terminal His tag (human, UniProt P31994 43-217)
T1 construct: extracellular domain; also called FcγRIIb; not shown: His tag attached to the C terminus
T1 sequence (looked up): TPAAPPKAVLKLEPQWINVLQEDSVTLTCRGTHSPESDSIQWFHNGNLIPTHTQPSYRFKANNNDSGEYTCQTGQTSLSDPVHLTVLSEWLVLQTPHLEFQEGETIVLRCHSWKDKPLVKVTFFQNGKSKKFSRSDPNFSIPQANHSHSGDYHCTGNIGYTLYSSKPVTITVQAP

T2: FcgRIIa H extracellular domain with C-terminal His tag (human, UniProt P12318 34-217)
T2 construct: extracellular domain; also called FcγRIIa H; FcγRIIa type H; not shown: His tag attached to the C terminus
T2 sequence (looked up): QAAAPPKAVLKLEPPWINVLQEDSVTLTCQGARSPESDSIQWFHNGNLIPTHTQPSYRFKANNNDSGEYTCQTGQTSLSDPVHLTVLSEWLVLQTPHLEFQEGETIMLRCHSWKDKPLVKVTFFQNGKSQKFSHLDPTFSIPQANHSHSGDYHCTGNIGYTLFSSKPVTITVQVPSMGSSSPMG

T3: FcgRIIa R extracellular domain with C-terminal His tag (human, UniProt P12318 34-217)
T3 construct: extracellular domain; also called FcγRIIa R; FcγRIIa type R; not shown: His tag attached to the C terminus
T3 sequence (looked up): T2 sequence (looked up) with H134R

B1: GpH7-TA7/GpH7-B3/GpL16-k0 (antibody, human IgG1, kappa)
heavy 1: QVQLVQSGAEVKKPGASVTVSCKASGYTFTDYEMHWIRQPPGEGLEWIGAIDPKTGDTAYSESFQDRVTLTADKSTSTAYMELSSLTSEDTAVYYCTRFYSYTYWGQGTLVTVSSASTKGPSVFPLAPSSKSTSGGTAALGCLVKDYFPEPVTVSWNSGALTSGVHTFPAVLQSSGLYSLSSVVTVPSSSLGTQTYICNVNHKPSNTKVDKKVEPKSCDKTHTCPPCPAPEYLWGPSVFLFPPKPKDTLMISRTPEVTCVVVDVSHEDPEVKFNWYVDGVEVHNAKTKPREEQYNATYRVVSVLTVLHQDWLNGKEYKCKVSNKALPAPIEKTISKAKGQPREPQVYTLPPSRKELTKNQVSLTCLVKGFYPSDIAVEWESNGQPENNYKTTPPVLDSDGSFFLYSKLTVDKSRWQQGNVFSCSVMHEALHNRYTQKSLSLSP
heavy 2: not shown
light: DIVMTQSPLSLPVTPGEPASISCQASESLVHSNRNTYLHWYLQKPGQSPQLLIYKVSNRFSGVPDRFSGSGSGTDFTLKISRVEAEDVGVYYCSQNTHVPPTFGQGTKVEIERTVAAPSVFIFPPSDEQLKSGTASVVCLLNNFYPREAKVQWKVDNALQSGNSQESVTEQDSKDSTYSLSSTLTLSKADYEKHKVYACEVTHQGLSSPVTKSFNRGEC
notes: L234Y/G236W/S298A in one H chain only; also called TA7/B3
B2: GpH7-TA7/GpH7-TA45/GpL16-k0 (antibody, human IgG1, kappa)
heavy 1: B1 heavy 1
heavy 2: B1 heavy 1 with K354D, R433H, K437E
light: B1 light
notes: L234Y/G236W/S298A in both H chains (called homodimerized); also called TA7/TA45
B3: GpH7-TA7/GpH7-B78/GpL16-k0 (antibody, human IgG1, kappa)
heavy 1: B1 heavy 1
heavy 2: B1 heavy 1 with Y232L, W234G, S237D, A296S, A328L, I330E, K354D, R433H, K437E
light: B1 light
notes: L234Y/G236W/S298A in one H chain, S239D/A330L/I332E in the other; also called TA7/B78
B4: H240-Kn061/H240-Hl071/L73-k0 variant with F241L introduced into H240-Hl071 (antibody, human IgG1, kappa)
heavy 1: QDQLVQSGAEVKKPGASVKVSCKASGFNIKDTYIQWVRQAPGQGLEWMGRIDPLRKQTKYREKFEGRVTITADTSTNTAYMELSSLRSEDTAVYYCVRSGREFDYWGQGTLVTVSSASTKGPSVFPLAPSSKSTSGGTAALGCLVKDYFPEPVTVSWNSGALTSGVHTFPAVLQSSGLYSLSSVVTVPSSSLGTQTYICNVNHKPSNTKVDKKVEPKSCDKTHTCPPCPAPEYYWGPSVFLFPPKPKDTLMISRTPEVTCVVVDVSDEDPEVKFNWYVDGVEVHNAKTKPREEQYNATYRVVSVLTVLHQDWLNGKEYKCKVSNKALPAPIEKTISKAKGQPREPQVCTLPPSRDELTKNQVSLWCLVKGFYPSDIAVEWESNGQPENNYKTTPPVLDSDGSFFLYSKLTVDKSRWQQGNVFSCSVMHEALHNHYTQKSLSLSP
heavy 2: QDQLVQSGAEVKKPGASVKVSCKASGFNIKDTYIQWVRQAPGQGLEWMGRIDPLRKQTKYREKFEGRVTITADTSTNTAYMELSSLRSEDTAVYYCVRSGREFDYWGQGTLVTVSSASTKGPSVFPLAPSSKSTSGGTAALGCLVKDYFPEPVTVSWNSGALTSGVHTFPAVLQSSGLYSLSSVVTVPSSSLGTQTYICNVNHKPSNTKVDKKVEPKSCDKTHTCPPCPAPELLGGPSVLLFPPKPKDTLMISRTPEVTCVVVDVSHEDPEVKFNWYVDGVEVHNAKTKPREEQYNSTYRVVSVLTVLHQDWLNGKEYKCKVSNDALPMPIEETISKAKGQPREPQVYTLPPSRCELTKNQVSLSCAVKGFYPSDIAVEWESNGQPENNYKTTPPVLDSDGSFFLVSKLTVDKSRWQQGNVFSCSVMHEALHNHYTQKSLSLSP
light: DIQMTQSPSSLSASVGDRVTITCRASQDIHKYIAWYQQKPGQAPRLLIQYTSTLQPGVPSRFSGSGSGTDYTFTISSLQPEDIATYYCLQYEQLRTFGGGTKVEIKRTVAAPSVFIFPPSDEQLKSGTASVVCLLNNFYPREAKVQWKVDNALQSGNSQESVTEQDSKDSTYSLSSTLTLSKADYEKHKVYACEVTHQGLSSPVTKSFNRGEC
notes: Point variant made with H240-Kn061/H240-Hl071/L73-k0 as template; position by EU numbering; also called H240-Hl071 F241L
B5: H240-Kn061/H240-Hl071/L73-k0 variant with L235F introduced into H240-Hl071 (antibody, human IgG1, kappa)
heavy 1: B4 heavy 1
heavy 2: B4 heavy 2 with L234F, L240F
light: B4 light
notes: Point variant made with H240-Kn061/H240-Hl071/L73-k0 as template; position by EU numbering; also called H240-Hl071 L235F
B6: H240-Kn061/H240-Hl071/L73-k0 variant with Y234E introduced into H240-Kn061 (antibody, human IgG1, kappa)
heavy 1: B4 heavy 1 with Y233E
heavy 2: B4 heavy 2 with L240F
light: B4 light
notes: Point variant made with H240-Kn061/H240-Hl071/L73-k0 as template; position by EU numbering; also called H240-Kn061 Y234E
B7: H240-Kn061/H240-Hl071/L73-k0 variant with F241M introduced into H240-Hl071 (antibody, human IgG1, kappa)
heavy 1: B4 heavy 1
heavy 2: B4 heavy 2 with L240M
light: B4 light
notes: Point variant made with H240-Kn061/H240-Hl071/L73-k0 as template; position by EU numbering; also called H240-Hl071 F241M
B8: H240-Kn061/H240-Hl071/L73-k0 variant with V240A introduced into H240-Hl071 (antibody, human IgG1, kappa)
heavy 1: B4 heavy 1
heavy 2: B4 heavy 2 with V239A, L240F
light: B4 light
notes: Point variant made with H240-Kn061/H240-Hl071/L73-k0 as template; position by EU numbering; also called H240-Hl071 V240A
B9: H240-Kn061/H240-Hl071/L73-k0 variant with V240F introduced into H240-Hl071 (antibody, human IgG1, kappa)
heavy 1: B4 heavy 1
heavy 2: B4 heavy 2 with V239F, L240F
light: B4 light
notes: Point variant made with H240-Kn061/H240-Hl071/L73-k0 as template; position by EU numbering; also called H240-Hl071 V240F

Target: T4, FcgRIIIa F extracellular domain with C-terminal His tag (human, UniProt P08637 17-208)
T4 construct: extracellular domain; also called FcγRIIIa F; FcγRIIIa (F158); not shown: His tag attached to the C terminus
T4 sequence (P08637 17-208): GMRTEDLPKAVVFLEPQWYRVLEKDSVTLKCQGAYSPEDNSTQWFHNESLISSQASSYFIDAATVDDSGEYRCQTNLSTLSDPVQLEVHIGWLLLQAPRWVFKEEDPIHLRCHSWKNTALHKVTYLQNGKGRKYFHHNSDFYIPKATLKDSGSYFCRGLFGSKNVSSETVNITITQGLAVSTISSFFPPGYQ
Test: ratio of SPR (Biacore) KDs, FcγRIIb as reference
Protocol: (§1) The prepared antibodies were assayed as to the KDs for FcγRIIIa and FcγRIIb according to the method described in Reference Example 2.
(§2) Analysis of interaction between objective antibody and the FcγR was carried out using Biacore T100 (GE Healthcare). HBS-EP+ (GE Healthcare) was used as the running buffer, and the measurement temperature was set to 25° C. Chips produced by immobilizing the antigen peptide by the amine coupling method to a Series S Sencor Chip CM5 (GE Healthcare), or alternatively, chips produced by allowing preliminarily biotinylated antigen peptides to interact with and immobilize onto a Series S Sensor Chip SA (certified) (GE Healthcare) were used. Antibodies of interest were captured onto an antigen peptide-immobilized chip, and allowed to interact to each FcγR diluted with running buffer. To regenerate and repeatedly use the chip, the antibodies captured on the chip were washed off by reacting 10 mM glycine-HCl, pH 1.5.
(§3) The FcγR-binding activity of each antibody was assessed primarily using as an indicator the FcγR-binding activity and dissociation constant for FcγR.

FcγRIIIa F/FcγRIIb ratio (KD for FcγRIIb / KD for FcγRIIIa F)	Binder
14	B1
5.3	B2
244	B3

Target: T4, FcgRIIIa F extracellular domain with …
Test: SPR (Biacore T100), antibody captured on antigen peptide chip, FcγR extracellular domain as analyte, kinetic analysis
Protocol: as §1, §2, §3

Kd	Binder
0.32 µM	B1
3.3 µM	B2
0.0047 µM	B3

Target: T1, FcgRIIb extracellular domain with …
Test: as above
Protocol: as §1, §2, §3

Kd	Binder
4.5 µM	B1
18 µM	B2
1.1 µM	B3

Target: T2, FcgRIIa H extracellular domain with …
Test: SPR (Biacore) KD ratio against the template H240-Kn061/H240-Hl071/L73-k0
Protocol: (§4) The antibodies were assessed for the binding to each FcgR. […] The resultant value was defined as relative KD, and used as an assessment indicator.
(§5) Analysis of interaction between obj ective antibody and the FcγR was carried out using Biacore T100 (GE Healthcare), Biacore T200, Biacore A100, and Biacore 4000. HBS-EP+ (GE Healthcare) was used as the running buffer, and the measurement temperature was set to 25° C. Chips produced by immobilizing the antigen peptide by the amine coupling method to a Series S sensor Chip CM5 (GE Healthcare), chips produced by allowing preliminarily biotinylated antigen peptides to interact with and immobilize onto a Series S Sensor Chip SA (certified) (GE Healthcare), chips produced by immobilizing Protein L (ACTIGEN, BioVision) to Series S Sencor Chip CM5 (GE Healthcare), or chips produced by immobilizing Protein A/G (Thermo Scientific) to Series S Sencor Chip CM5 (GE Healthcare) were used. Antibodies of interest were captured onto these chips, and allowed to interact to each FcγR diluted with running buffer.

relative KD (KD of H240-Kn061/H240-Hl071/L73-k0 / KD of variant)	Binder
1.2	B4
1.1	B5
0.7	B6
1.1	B7
1.2	B8
0.9	B9

Target: T3, FcgRIIa R extracellular domain with …
Test: as above
Protocol: as §4, §5

relative KD (KD of H240-Kn061/H240-Hl071/L73-k0 / KD of variant)	Binder
1.2	B4
1.2	B5
1.4	B6
1.3	B7
1	B8
1.1	B9

Target: T4, FcgRIIIa F extracellular domain with …
Test: as above
Protocol: as §4, §5

relative KD (KD of H240-Kn061/H240-Hl071/L73-k0 / KD of variant)	Binder
1.3	B4
1.9	B5
1.9	B6
1.3	B7
1.3	B8
1.4	B9

Target: T1, FcgRIIb extracellular domain with …
Test: as above
Protocol: as §4, §5

relative KD (KD of H240-Kn061/H240-Hl071/L73-k0 / KD of variant)	Binder
0.8	B4
1	B5
0.5	B6
0.9	B7
1	B8
0.9	B9

Target: T5, FcgRIIIa V extracellular domain with C-terminal His tag (human, UniProt P08637 17-208)
T5 construct: extracellular domain; also called FcγRIIIa V; FcγRIIIa (V158); not shown: His tag attached to the C terminus
T5 sequence (P08637 17-208 F176V): as the sequence (P08637 17-208) above, with F160V counted along it
Test: as above
Protocol: as §4, §5

relative KD (KD of H240-Kn061/H240-Hl071/L73-k0 / KD of variant)	Binder
1.3	B4
1.6	B5
1.6	B6
1.3	B7
1.7	B8
1	B9
